Experimental data from paper PMC6914340.

Legend:
Assay in all cases: flow cytometry on cells; on-yeast binding titration: single yeast colonies each displaying an IL-6 variant; biotinylated gp130 from 1 μM, eight concentrations in a 1/3 dilution series; apparent KD
[1] = molecular target: IL-6 variant Mut1 displayed on yeast (human) (UniProt P05231)
[2] = molecular target: IL-6 variant Mut3 displayed on yeast (human) (UniProt P05231)
[3] = molecular target: IL-6 variant Mut7 displayed on yeast (human) (UniProt P05231)
Sequence of IL-6 variant Mut7 displayed on yeast (human) (P05231 30-212, change not shown): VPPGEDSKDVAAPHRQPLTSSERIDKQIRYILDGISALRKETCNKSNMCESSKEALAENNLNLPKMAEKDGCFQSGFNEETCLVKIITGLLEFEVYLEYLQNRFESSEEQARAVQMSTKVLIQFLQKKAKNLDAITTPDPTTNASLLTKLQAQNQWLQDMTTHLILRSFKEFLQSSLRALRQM

Measured: Kd

Sequence of biotinylated gp130 ectodomain (SD1-SD3, amino acids 23–321) (P40189 23-321): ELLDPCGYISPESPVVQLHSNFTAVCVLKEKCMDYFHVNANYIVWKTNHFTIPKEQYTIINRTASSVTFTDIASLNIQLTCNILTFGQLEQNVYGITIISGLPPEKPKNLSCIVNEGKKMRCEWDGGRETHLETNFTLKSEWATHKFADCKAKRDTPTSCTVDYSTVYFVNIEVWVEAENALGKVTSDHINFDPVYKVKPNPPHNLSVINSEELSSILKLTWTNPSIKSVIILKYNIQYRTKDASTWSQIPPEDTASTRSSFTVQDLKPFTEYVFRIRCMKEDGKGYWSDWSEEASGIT
Sequence of IL-6 variant Mut3 displayed on yeast (human) (P05231 30-212, change not shown): as the sequence (P05231 30-212, change not shown) above
Sequence of IL-6 variant Mut1 displayed on yeast (human) (P05231 30-212, change not shown): as above

biotinylated gp130 ectodomain (SD1-SD3, amino acids 23–321) (from UniProt P40189 23-321) (domain or fragment)
2 nM: all assays above
